{"source": "patent US7872117", "biological_target": "murine c-Met polypeptide (Met receptor as expressed on DA3 mouse mammary adenocarcinoma cells) (mouse) (UniProt P16056)", "assay": "cell-based or functional assay", "data": [{"substance": "Hepatocyte growth factor/scatter factor (HGF/SF) (ligand)", "values": [{"measurement": "in vitro invasion through Matrigel (invading cells per filter, DA3 cells, HGF/SF 100 ng/ml) (cells per filter)", "value": 80}]}]}
